Measurements taken from the supplement of paper PMC10598134.
± gives the standard deviation.

Assay: collision cross section of modified peptide (TIMS, N2, iRT-aligned); higher = larger / more extended gas-phase ion
How it was run: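 Collision cross section values rest on the Mason-Schamp equation applied to calibrated, run-aligned mobility data from synthetic peptides. Mobility (1/K0) was calibrated with three reference ions and aligned per run to the median iRT peptide deviation, and 1–3 technical replicates of the most abundant feature per charge state were averaged. Data came from a timsTOF Pro/HT in dda-PASEF mode (nitrogen, ~2.4 mbar) after a 120-min nanoflow C18 gradient at 60 °C.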

[1] = charge state: 2, modification: hydroxyisobutyryl
[2] = charge state: 3, modification: hydroxyisobutyryl
[3] = charge state: 2, modification: HexNAc (ST)
[4] = charge state: 2, modification: Nitro (Y)
[5] = charge state: 2, modification: Phospho (Y)
[6] = charge state: 2, modification: Citrullination (R)
[7] = charge state: 3, modification: Citrullination (R)
[8] = charge state: 3, modification: Methyl (R)
[9] = charge state: 2, modification: Acetyl (K)
[10] = charge state: 3, modification: Acetyl (K)
[11] = charge state: 2, modification: Biotin
[12] = charge state: 2, modification: Butyryl
[13] = charge state: 2, modification: Crotonyl
[14] = charge state: 2, modification: Dimethyl (K)
[15] = charge state: 3, modification: Dimethyl (K)
[16] = charge state: 2, modification: Formyl
[17] = charge state: 2, modification: Glutarylation
[18] = charge state: 2, modification: GlyGly (K)
[19] = charge state: 3, modification: GlyGly (K)
[20] = charge state: 2, modification: Malonyl
[21] = charge state: 2, modification: Methyl (K)
[22] = charge state: 3, modification: Methyl (K)
[23] = charge state: 2, modification: Propionyl
[24] = charge state: 2, modification: Succinyl
[25] = charge state: 3, modification: Succinyl
[26] = charge state: 2, modification: Trimethyl (K)
[27] = charge state: 3, modification: Trimethyl (K)
[28] = charge state: 3, modification: Glutarylation

VDVEVPDVSLEGPEGKLK [_VDVEVPDVSLEGPEGK(hydroxyisobutyryl)LK_]
collision cross section [1]: 470.57 ± 1.1 Å² | collision cross section [2]: 549.45 ± 27 Å²

VEELEGEITTLNHK [_VEELEGEIT(HexNAc (ST))TLNHK_]
collision cross section [3]: 442.1 ± 10 Å² | collision cross section (charge state: 3, modification: HexNAc (ST)): 511.94 ± 0.96 Å²

VELCSFSGYK [_VELCSFSGY(Nitro (Y))K_]
collision cross section [4]: 364.52 ± 0.72 Å²

VELCSFSGYK [_VELCSFSGY(Phospho (Y))K_]
collision cross section [5]: 372.99 ± 0.08 Å²

VEPGSLESSPGLGRGR [_VEPGSLESSPGLGR(Citrullination (R))GR_]
collision cross section [6]: 418.2 ± 0.21 Å² | collision cross section [7]: 495.92 ± 3.1 Å²

VEPGSLESSPGLGRGR [_VEPGSLESSPGLGR(Methyl (R))GR_]
collision cross section [8]: 499.14 ± 2.2 Å²

VEPIHAVVLPRGK [_VEPIHAVVLPR(Citrullination (R))GK_]
collision cross section [6]: 406.23 ± 0.55 Å² | collision cross section [7]: 492.34 ± 18 Å²

VEPIHAVVLPRGK [_VEPIHAVVLPR(Methyl (R))GK_]
collision cross section (charge state: 2, modification: Methyl (R)): 424.97 ± 1 Å² | collision cross section [8]: 489.93 ± 2.2 Å²

VETFSGVYK [_VETFSGVY(Nitro (Y))K_]
collision cross section [4]: 348.3 ± 0.55 Å²

VETFSGVYK [_VETFSGVY(Phospho (Y))K_]
collision cross section [5]: 345.95 ± 0.75 Å²

VETTVTSLKTK [_VETTVTSLK(Acetyl (K))TK_]
collision cross section [9]: 378.83 ± 0.45 Å² | collision cross section [10]: 444.47 Å²

VETTVTSLKTK [_VETTVTSLK(Biotin)TK_]
collision cross section [11]: 412.03 ± 1.9 Å²

VETTVTSLKTK [_VETTVTSLK(Butyryl)TK_]
collision cross section [12]: 389.24 ± 1.3 Å²

VETTVTSLKTK [_VETTVTSLK(Crotonyl)TK_]
collision cross section [13]: 389.71 ± 0.89 Å²

VETTVTSLKTK [_VETTVTSLK(Dimethyl (K))TK_]
collision cross section [14]: 385.99 ± 0.37 Å² | collision cross section [15]: 450.04 ± 3.7 Å²

VETTVTSLKTK [_VETTVTSLK(Formyl)TK_]
collision cross section [16]: 373.38 ± 0.89 Å²

VETTVTSLKTK [_VETTVTSLK(Gluratylation)TK_]
collision cross section [17]: 392.12 ± 0.61 Å²

VETTVTSLKTK [_VETTVTSLK(GlyGly (K))TK_]
collision cross section [18]: 391.21 ± 2 Å² | collision cross section [19]: 459.77 ± 2 Å²

VETTVTSLKTK [_VETTVTSLK(Malonyl)TK_]
collision cross section [20]: 384.89 ± 0.011 Å²

VETTVTSLKTK [_VETTVTSLK(Methyl (K))TK_]
collision cross section [21]: 381.5 ± 1.8 Å² | collision cross section [22]: 455.24 ± 7.2 Å²

VETTVTSLKTK [_VETTVTSLK(Propionyl)TK_]
collision cross section [23]: 382.91 ± 0.92 Å²

VETTVTSLKTK [_VETTVTSLK(Succinyl)TK_]
collision cross section [24]: 381.14 ± 3.4 Å² | collision cross section [25]: 451.06 Å²

VETTVTSLKTK [_VETTVTSLK(Trimethyl (K))TK_]
collision cross section [26]: 391.95 ± 0.62 Å² | collision cross section [27]: 455.28 ± 8.1 Å²

VETTVTSLKTK [_VETTVTSLK(hydroxyisobutyryl)TK_]
collision cross section [1]: 389.83 ± 0.81 Å² | collision cross section [2]: 450.94 ± 1.9 Å²

VFIGNLNTLVVKK [_VFIGNLNTLVVK(Acetyl (K))K_]
collision cross section [9]: 409.46 ± 1.7 Å² | collision cross section [10]: 485 Å²

VFIGNLNTLVVKK [_VFIGNLNTLVVK(Butyryl)K_]
collision cross section [12]: 414.54 ± 0.53 Å² | collision cross section (charge state: 3, modification: Butyryl): 490.12 Å²

VFIGNLNTLVVKK [_VFIGNLNTLVVK(Crotonyl)K_]
collision cross section [13]: 413.58 ± 0.34 Å² | collision cross section (charge state: 3, modification: Crotonyl): 479.51 Å²

VFIGNLNTLVVKK [_VFIGNLNTLVVK(Dimethyl (K))K_]
collision cross section [14]: 427.12 ± 1.4 Å² | collision cross section [15]: 478.47 ± 1.2 Å²

VFIGNLNTLVVKK [_VFIGNLNTLVVK(Formyl)K_]
collision cross section [16]: 407.78 ± 0.74 Å²

VFIGNLNTLVVKK [_VFIGNLNTLVVK(Gluratylation)K_]
collision cross section [17]: 424.62 ± 0.97 Å² | collision cross section [28]: 495.12 ± 1.7 Å²

VFIGNLNTLVVKK [_VFIGNLNTLVVK(GlyGly (K))K_]
collision cross section [18]: 445.95 ± 1.4 Å² | collision cross section [19]: 487.11 ± 2 Å²

VFIGNLNTLVVKK [_VFIGNLNTLVVK(Malonyl)K_]
collision cross section [20]: 419.59 ± 0.57 Å²

VFIGNLNTLVVKK [_VFIGNLNTLVVK(Methyl (K))K_]
collision cross section [21]: 423.04 ± 1.2 Å² | collision cross section [22]: 477.31 ± 4.3 Å²

VFIGNLNTLVVKK [_VFIGNLNTLVVK(Succinyl)K_]
collision cross section [24]: 423.07 ± 0.53 Å² | collision cross section [25]: 489.97 ± 1.6 Å²

VFIGNLNTLVVKK [_VFIGNLNTLVVK(Trimethyl (K))K_]
collision cross section [26]: 435.19 ± 1 Å² | collision cross section [27]: 485.88 ± 1.8 Å²

VFIGNLNTLVVKK [_VFIGNLNTLVVK(hydroxyisobutyryl)K_]
collision cross section [1]: 416.95 ± 0.83 Å² | collision cross section [2]: 490.45 ± 2.8 Å²

VFIGNLNTLVVKKK [_VFIGNLNTLVVK(Acetyl (K))KK_]
collision cross section [10]: 507.56 ± 1 Å²

VFIGNLNTLVVKKK [_VFIGNLNTLVVK(Formyl)KK_]
collision cross section (charge state: 3, modification: Formyl): 499.94 Å²

VFIGNLNTLVVKKK [_VFIGNLNTLVVK(Gluratylation)KK_]
collision cross section [28]: 521.05 ± 1.8 Å²

VFIGNLNTLVVKKK [_VFIGNLNTLVVK(GlyGly (K))KK_]
collision cross section [19]: 502.69 ± 1.1 Å²

VFIGNLNTLVVKKK [_VFIGNLNTLVVK(Malonyl)KK_]
collision cross section (charge state: 3, modification: Malonyl): 517.22 Å²

VFIGNLNTLVVKKK [_VFIGNLNTLVVK(Methyl (K))KK_]
collision cross section [22]: 483.02 ± 5.9 Å²

VFIGNLNTLVVKKK [_VFIGNLNTLVVK(Succinyl)KK_]
collision cross section [25]: 514.83 ± 3.9 Å²

VFIGNLNTLVVKKK [_VFIGNLNTLVVK(Trimethyl (K))KK_]
collision cross section [27]: 488.61 ± 1.1 Å²

VFIGNLNTLVVKKK [_VFIGNLNTLVVK(hydroxyisobutyryl)KK_]
collision cross section [2]: 515.31 ± 2.1 Å²

VFLDCCNYITELR [_VFLDCCNY(Nitro (Y))ITELR_]
collision cross section [4]: 448.56 ± 0.53 Å²

VFSIISSEKELK [_VFSIISSEK(Acetyl (K))ELK_]
collision cross section [9]: 405.7 ± 0.9 Å²

VFSIISSEKELK [_VFSIISSEK(Biotin)ELK_]
collision cross section [11]: 432.12 ± 1.1 Å²

VFSIISSEKELK [_VFSIISSEK(Butyryl)ELK_]
collision cross section [12]: 413.27 ± 0.78 Å²

VFSIISSEKELK [_VFSIISSEK(Crotonyl)ELK_]
collision cross section [13]: 412.67 ± 0.34 Å²

VFSIISSEKELK [_VFSIISSEK(Dimethyl (K))ELK_]
collision cross section [14]: 416.15 ± 1.1 Å² | collision cross section [15]: 490.22 ± 1.2 Å²

VFSIISSEKELK [_VFSIISSEK(Formyl)ELK_]
collision cross section [16]: 402.55 ± 0.42 Å²

VFSIISSEKELK [_VFSIISSEK(Gluratylation)ELK_]
collision cross section [17]: 415.44 ± 1.1 Å²

VFSIISSEKELK [_VFSIISSEK(GlyGly (K))ELK_]
collision cross section [18]: 424.98 ± 0.97 Å² | collision cross section [19]: 493.89 ± 2 Å²

VFSIISSEKELK [_VFSIISSEK(Malonyl)ELK_]
collision cross section [20]: 409.68 ± 0.66 Å²

VFSIISSEKELK [_VFSIISSEK(Methyl (K))ELK_]
collision cross section [21]: 411.54 ± 0.9 Å² | collision cross section [22]: 489.57 ± 1.9 Å²

VFSIISSEKELK [_VFSIISSEK(Succinyl)ELK_]
collision cross section [24]: 409.2 ± 4.2 Å²

VFSIISSEKELK [_VFSIISSEK(Trimethyl (K))ELK_]
collision cross section [26]: 421.37 ± 1.1 Å² | collision cross section [27]: 454.68 ± 1.8 Å²

VFSIISSEKELK [_VFSIISSEK(hydroxyisobutyryl)ELK_]
collision cross section [1]: 414.96 ± 0.83 Å²

VGADGTVFATR [_VGADGTVFAT(HexNAc (ST))R_]
collision cross section [3]: 366.62 ± 0.59 Å²

VGEFSGANKEK [_VGEFSGANK(Acetyl (K))EK_]
collision cross section [9]: 363.56 ± 0.5 Å²

VGEFSGANKEK [_VGEFSGANK(Biotin)EK_]
collision cross section [11]: 386.08 Å²

VGEFSGANKEK [_VGEFSGANK(Butyryl)EK_]
collision cross section [12]: 369.78 ± 1.3 Å²

VGEFSGANKEK [_VGEFSGANK(Crotonyl)EK_]
collision cross section [13]: 370.98 ± 0.8 Å²

VGEFSGANKEK [_VGEFSGANK(Dimethyl (K))EK_]
collision cross section [14]: 376.33 ± 1.2 Å² | collision cross section [15]: 440.62 ± 2.8 Å²

VGEFSGANKEK [_VGEFSGANK(Formyl)EK_]
collision cross section [16]: 358.59 ± 1.4 Å²

VGEFSGANKEK [_VGEFSGANK(Gluratylation)EK_]
collision cross section [17]: 364.67 ± 0.089 Å²

VGEFSGANKEK [_VGEFSGANK(GlyGly (K))EK_]
collision cross section [18]: 372.84 ± 0.89 Å² | collision cross section [19]: 452.89 ± 1.5 Å²

VGEFSGANKEK [_VGEFSGANK(Malonyl)EK_]
collision cross section [20]: 354.12 ± 1.7 Å²

VGEFSGANKEK [_VGEFSGANK(Methyl (K))EK_]
collision cross section [21]: 374.84 ± 0.74 Å² | collision cross section [22]: 443.95 ± 6.6 Å²

VGEFSGANKEK [_VGEFSGANK(Propionyl)EK_]
collision cross section [23]: 367.87 ± 0.33 Å²

VGEFSGANKEK [_VGEFSGANK(Succinyl)EK_]
collision cross section [24]: 357.27 ± 0.73 Å²
